Key:
[1] = molecular target: T1, purified AFDN FHA domain, C-terminally extended (371-580) (mouse, UniProt Q9QZQ1 371-580); assay: ITC; MicroCal ITC200, 25 °C, 20 mM Tris-HCl pH 7.5, 150 mM NaCl, 1 mM DTT; settings: both partners purified
T1 construct: 15N-labelled in one NMR experiment; GST probably cut off with thrombin; also called extended FHA domain; source: E. coli BL21, purified (glutathione resin, thrombin cleavage or glutathione elution, SEC)
T1 sequence (looked up): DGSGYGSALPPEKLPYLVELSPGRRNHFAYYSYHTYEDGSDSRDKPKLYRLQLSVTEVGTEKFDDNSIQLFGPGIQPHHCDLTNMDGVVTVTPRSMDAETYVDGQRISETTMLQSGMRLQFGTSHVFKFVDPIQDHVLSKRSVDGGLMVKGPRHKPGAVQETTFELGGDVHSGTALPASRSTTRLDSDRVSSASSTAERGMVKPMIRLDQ

[2] = molecular target: T1, purified AFDN FHA domain, C-terminally …; assay: ITC; MicroCal ITC200, 25 °C, 20 mM Tris-HCl pH 7.5, 20 mM NaCl, 1 mM DTT; settings: both partners purified

Kd [1]: 14.8 µM
Kd [2]: 5.7 µM
B1: purified SCRIB PDZ1 domain (718-820) (domain or fragment)
chain: not shown
notes: 15N-labelled in one NMR experiment; GST probably cut off with thrombin (it was mixed with GST fusions on glutathione beads); source: E. coli BL21, purified (glutathione resin, thrombin cleavage or glutathione elution, SEC)
